# Patent publication US20210079056A1 (Bayer, published 2021)
# Where “and” joins values, the source holds several entries; their conditions need not be identical. Equal entries are not always repeated.
# T1: human NPRA (human, UniProt P16066 33-1061)
# T1 sequence (looked up): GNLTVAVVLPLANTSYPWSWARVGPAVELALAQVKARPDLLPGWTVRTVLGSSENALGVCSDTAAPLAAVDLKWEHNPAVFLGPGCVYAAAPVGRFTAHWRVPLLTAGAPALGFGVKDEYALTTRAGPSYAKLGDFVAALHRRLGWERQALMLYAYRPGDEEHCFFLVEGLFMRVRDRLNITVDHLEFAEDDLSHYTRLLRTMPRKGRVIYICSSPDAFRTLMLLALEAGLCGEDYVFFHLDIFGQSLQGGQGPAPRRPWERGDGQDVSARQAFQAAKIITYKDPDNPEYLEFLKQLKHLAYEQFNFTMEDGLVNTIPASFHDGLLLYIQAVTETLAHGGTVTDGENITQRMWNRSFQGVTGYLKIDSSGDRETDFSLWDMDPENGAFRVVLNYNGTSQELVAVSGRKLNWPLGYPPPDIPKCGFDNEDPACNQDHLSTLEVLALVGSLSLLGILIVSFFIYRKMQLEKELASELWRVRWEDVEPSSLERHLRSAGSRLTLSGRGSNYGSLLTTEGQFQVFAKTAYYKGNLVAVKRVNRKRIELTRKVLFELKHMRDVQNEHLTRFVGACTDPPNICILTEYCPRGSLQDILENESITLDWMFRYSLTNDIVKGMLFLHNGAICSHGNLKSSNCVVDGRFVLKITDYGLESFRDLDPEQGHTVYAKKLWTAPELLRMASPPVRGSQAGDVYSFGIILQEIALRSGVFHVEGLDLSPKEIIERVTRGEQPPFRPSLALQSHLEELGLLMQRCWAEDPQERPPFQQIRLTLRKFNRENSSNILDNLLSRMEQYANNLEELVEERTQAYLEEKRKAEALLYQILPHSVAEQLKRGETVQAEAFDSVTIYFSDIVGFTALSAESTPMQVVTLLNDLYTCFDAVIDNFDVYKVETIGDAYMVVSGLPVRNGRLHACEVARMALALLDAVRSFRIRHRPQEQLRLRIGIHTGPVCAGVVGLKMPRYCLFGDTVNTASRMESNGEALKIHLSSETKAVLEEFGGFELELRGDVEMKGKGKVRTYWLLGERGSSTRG
# Molecular target: T1, human NPRA
# Test: cell-based or functional assay
Binder,average rel logEC50,rel. logEC50* pcs,rel. logEC50 pcs 1,rel. logEC50 pcs 2,rel. logEC50 pcs 4,rel. logEC50 pcs 5,rel. logEC50 pcs 6,rel. logEC50 pcs 9,rel. logEC50 pcs 7,rel. logEC50 pcs 3
"TPP-10282 (antibody, human IgG1, lambda) heavy: not shown light: QSVLTQPPSVSGAPGQRVTISCTGSSSNIGAGYDVHWYQQLPGTAPKLLIYGNSNRPSGVPDRFSGSKSGTSASLAITGLQAEDEADYYCQSYDSSLSGVVFGGGTKLTVLGQPKAAPSVTLFPPSSEELQANKATLVCLISDFYPGAVTVAWKADSSPVKAGVETTTPSKQSNNKYAASSYLSLTPEQWKSHRSYSCQVTHEGSTVEKTVAPTECS",0.1,,0.3,-0.2,0.1,0.2,,,,
TPP-10290 (antibody) heavy: not shown light: QSVLTQPPSVSGAPGQRVTISCTGSSSNIGAGYDVHWYQQLPGTAPKLLIYGNSNRPSGVPDRFSGSKSGTSASLAITGLQAEDEADYYCQSYDSSLSGVVFGGGTKLTVLGQPKAAPSVTLFPPSSEELQANKATLVCLISDFYPGAVTVAWKADSSPVKAGVETTTPSKQSNNKYAASSYLSLTPEQWKSHRSYSCQVTHEGSTVEKTVAPTECS,-0.5,,-0.8,-0.1,,,,,,
"TPP-10283 (antibody, human IgG1, lambda) heavy: not shown light: QSVLTQPPSVSGAPGQRVTISCTGSSSNIGAGYDVHWYQQLPGTAPKLLIYGNSNRPSGVPDRFSGSKSGTSASLAITGLQAEDEADYYCQSYDSSLSGVVFGGGTKLTVLGQPKAAPSVTLFPPSSEELQANKATLVCLISDFYPGAVTVAWKADSSPVKAGVETTTPSKQSNNKYAASSYLSLTPEQWKSHRSYSCQVTHEGSTVEKTVAPTECS",,,,,,-0.8,,,,
TPP-10274 (antibody) heavy: not shown light: QSVLTQPPSVSGAPGQRVTISCTGSSSNIGAGYDVHWYQQLPGTAPKLLIYGNSNRPSGVPDRFSGSKSGTSASLAITGLQAEDEADYYCQSYDSSLSGVVFGGGTKLTVLGQPKAAPSVTLFPPSSEELQANKATLVCLISDFYPGAVTVAWKADSSPVKAGVETTTPSKQSNNKYAASSYLSLTPEQWKSHRSYSCQVTHEGSTVEKTVAPTECS,-0.1,,,-0.3,,,,,0,-0.2
"TPP-10294 (antibody, human IgG1, lambda) heavy: not shown light: QSVLTQPPSVSGAPGQRVTISCTGSSSNIGAGYDVHWYQQLPGTAPKLLIYGNSNRPSGVPDRFSGSKSGTSASLAITGLQAEDEADYYCQSYDSSLSGVVFGGGTKLTVLGQPKAAPSVTLFPPSSEELQANKATLVCLISDFYPGAVTVAWKADSSPVKAGVETTTPSKQSNNKYAASSYLSLTPEQWKSHRSYSCQVTHEGSTVEKTVAPTECS",-0.3,-0.5 and -0.6 and -0.4,,,-0.2,,,,0,
"TPP-10355 (antibody, human IgG1, lambda) heavy: not shown light: QSVLTQPPSVSGAPGQRVTISCTGSSSNIGAGYDVHWYQQLPGTAPKLLIYGNSNRPSGVPDRFSGSKSGTSASLAITGLQAEDEADYYCAAWNPNPNPNPNPNGGSGGSLRRSSCFGGRMDRIGAQSGLGCNSFRYGSNPNPNPNPNPNVFGSGTKVTVLGQPKAAPSVTLFPPSSEELQANKATLVCLISDFYPGAVTVAWKADSSPVKAGVETTTPSKQSNNKYAASSYLSLTPEQWKSHRSYSCQVTHEGSTVEKTVAPTECS",-0.2,,,-0.6,-0.3,,,,,0.2

# The next lines start with the values.
average rel logEC50,rel. logEC50* pcs,rel. logEC50 pcs 1,rel. logEC50 pcs 2,rel. logEC50 pcs 4,rel. logEC50 pcs 5,rel. logEC50 pcs 6,rel. logEC50 pcs 9,rel. logEC50 pcs 7,rel. logEC50 pcs 3,Binder
-0.7,-0.6 and -0.8,,,,,,,,,"TPP-13061 (antibody, human IgG1, lambda) heavy: not shown light: QSVLTQPPSVSGAPGQRVTISCTGSSSNIGAGYDVHWYQQLPGTAPKLLIYGNSNRPSGVPDRFSGSKSGTSASLAITGLQAEDEADYYCQSYDSSLSGVVFGGGTKLTVLGQPKAAPSVTLFPPSSEELQANKATLVCLISDFYPGAVTVAWKADSSPVKAGVETTTPSKQSNNKYAASSYLSLTPEQWKSHRSYSCQVTHEGSTVEKTVAPTECS"
-0.5,,,,,0,-0.9,,,,"TPP-10847 (antibody, human IgG1, lambda) heavy: not shown light: QSVLTQPPSVSGAPGQRVTISCTGSSSNIGAGYDVHWYQQLPGTAPKLLIYGNSNRPSGVPDRFSGSKSGTSASLAITGLQAEDEADYYCQSYDSSLSGVVFGGGTKLTVLGQPKAAPSVTLFPPSSEELQANKATLVCLISDFYPGAVTVAWKADSSPVKAGVETTTPSKQSNNKYAASSYLSLTPEQWKSHRSYSCQVTHEGSTVEKTVAPTECS"
,,,,,,,-0.3,,,TPP-13230 (antibody) heavy: not shown light: QSVLTQPPSVSGAPGQRVTISCTGSSSNIGAGYDVHWYQQLPGTAPKLLIYGNSNRPSGVPDRFSGSKSGTSASLAITGLQAEDEADYYCQSYDSSLSGVVFGGGTKLTVLGQPKAAPSVTLFPPSSEELQANKATLVCLISDFYPGAVTVAWKADSSPVKAGVETTTPSKQSNNKYAASSYLSLTPEQWKSHRSYSCQVTHEGSTVEKTVAPTECS
-0.4,,,,,-0.9,-0.4,,0.2,,"TPP-10765 (antibody, human IgG1, lambda) heavy: not shown light: QSVLTQPPSVSGAPGQRVTISCTGSSSNIGAGYDVHWYQQLPGTAPKLLIYGNSNRPSGVPDRFSGSKSGTSASLAITGLQAEDEADYYCQSYDSSLSGVVFGGGTKLTVLGQPKAAPSVTLFPPSSEELQANKATLVCLISDFYPGAVTVAWKADSSPVKAGVETTTPSKQSNNKYAASSYLSLTPEQWKSHRSYSCQVTHEGSTVEKTVAPTECS"
-0.8,-0.7 and -0.8,,,,,,,,,"TPP-13054 (antibody, human IgG1, lambda) heavy: not shown light: QSVLTQPPSVSGAPGQRVTISCTGSSSNIGAGYDVHWYQQLPGTAPKLLIYGNSNRPSGVPDRFSGSKSGTSASLAITGLQAEDEADYYCQSYDSSLSGVVFGGGTKLTVLGQPKAAPSVTLFPPSSEELQANKATLVCLISDFYPGAVTVAWKADSSPVKAGVETTTPSKQSNNKYAASSYLSLTPEQWKSHRSYSCQVTHEGSTVEKTVAPTECS"
-0.6,,,,,-0.4,-0.8,,,,"TPP-10845 (antibody, human IgG1, lambda) heavy: not shown light: QSVLTQPPSVSGAPGQRVTISCTGSSSNIGAGYDVHWYQQLPGTAPKLLIYGNSNRPSGVPDRFSGSKSGTSASLAITGLQAEDEADYYCQSYDSSLSGVVFGGGTKLTVLGQPKAAPSVTLFPPSSEELQANKATLVCLISDFYPGAVTVAWKADSSPVKAGVETTTPSKQSNNKYAASSYLSLTPEQWKSHRSYSCQVTHEGSTVEKTVAPTECS"
,,,,,-0.1,,,,,"TPP-10361 (antibody, human IgG1, lambda) heavy: not shown light: QSVLTQPPSVSGAPGQRVTISCTGSSSNIGAGYDVHWYQQLPGTAPKLLIYGSGSGSGSGSGSPDGGSGGSLRRSSCFGGRMDRIGAQSGLGCNSFRYGSYGSGGSGSGSGNRPSGVPDRFSGSKSGTSASLAITGLQAEDEADYYCQSYDSSLSGVVFGGGTKLTVLGQPKAAPSVTLFPPSSEELQANKATLVCLISDFYPGAVTVAWKADSSPVKAGVETTTPSKQSNNKYAASSYLSLTPEQWKSHRSYSCQVTHEGSTVEKTVAPTECS"
